The data set concerns the molecule itself. Briefly: SEC; preparative size-exclusion chromatography, HiLoad Superdex 200 prep grade (1.6 cm × 60 cm), 20 mM Na-Hepes pH 7, 200 mM NaCl. Background: In gel filtration, larger molecules generally elute earlier.

One may read the stoichiometry N as the number of molecules, sites or subunits per partner or assembly.

B1: Tyrosine hydroxylase deletion mutant with the entire N-terminal removed (THNΔ70) (domain or fragment)
chain: not shown
notes: human tyrosine hydroxylase isoform TH1 with the entire N-terminal tail (residues 1-70) removed; numbers count on: isoform TH1; also called THΔN70; source: recombinant, construct derived from pETMBP1a/TH (Genscript), expressed and purified essentially as TH; not shown: His, N-terminal, cleaved; MBP, N-terminal, cleaved
For the protein B1, the “stoichiometry N” value was found to be 4.

B2: Tyrosine hydroxylase deletion mutant lacking the N-terminal 43 residues (THNΔ43) (domain or fragment)
chain: not shown
notes: human tyrosine hydroxylase isoform TH1 lacking the N-terminal 43 residues; numbers count on: isoform TH1; source: recombinant, construct derived from pETMBP1a/TH (Genscript), expressed and purified essentially as TH; not shown: His, N-terminal, cleaved; MBP, N-terminal, cleaved
Regarding B2, the “stoichiometry N” value is 4.

B3: Tyrosine hydroxylase deletion mutant with the first 35 residues deleted (THNΔ35) (domain or fragment)
chain: not shown
notes: human tyrosine hydroxylase isoform TH1 with the first 35 residues deleted; numbers count on: isoform TH1; also called THΔN35; THΔ35; source: recombinant, construct derived from pETMBP1a/TH (Genscript), expressed and purified essentially as TH; not shown: His, N-terminal, cleaved; MBP, N-terminal, cleaved
Take B3: the “stoichiometry N” value amounted to 4.

These data come from PMC8748767 (Nature Communications, 2022).
